Measured values from article PMC9482650, “Quantitative fragmentomics allow affinity mapping of interactomes” (Nature Communications, 2022).
One block for each binder: values may come before it.

How the values were obtained:
Test in all cases: holdup assay
Set-up in all cases: key: below the threshold = too weak to quantify, mostly under pKd 3.1 to 4
Details in all cases: plain residues with an end cap or a label only (N-terminal biotin on a linker: ado-ado)
MAGI2_2, Q86UL8 = target: MAGI2_2, Q86UL8
MAGI2_2, Q86UL8, sequence (Q86UL8 410-522): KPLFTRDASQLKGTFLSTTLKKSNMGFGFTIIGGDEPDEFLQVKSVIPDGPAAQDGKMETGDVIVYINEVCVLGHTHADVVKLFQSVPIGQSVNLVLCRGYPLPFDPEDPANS

NHERF4_1, Q86UT5-2 = target: NHERF4_1, Q86UT5-2
NHERF4_1, Q86UT5-2, sequence (Q86UT5 other isoform, or with tags, fused parts or gaps): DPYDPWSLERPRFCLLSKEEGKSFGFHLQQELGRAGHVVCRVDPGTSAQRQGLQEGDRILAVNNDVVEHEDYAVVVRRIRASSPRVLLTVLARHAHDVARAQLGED

TJP1_3, Q07157 = target: TJP1_3, Q07157
TJP1_3, Q07157, sequence (Q07157 416-512): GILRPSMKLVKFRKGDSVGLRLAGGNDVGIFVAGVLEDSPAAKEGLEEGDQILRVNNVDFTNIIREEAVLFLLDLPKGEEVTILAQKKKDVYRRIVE

PCLO, Q9Y6V0 = target: T1, PCLO, Q9Y6V0
T1 sequence (Q9Y6V0 4491-4600, limits assumed, looked up): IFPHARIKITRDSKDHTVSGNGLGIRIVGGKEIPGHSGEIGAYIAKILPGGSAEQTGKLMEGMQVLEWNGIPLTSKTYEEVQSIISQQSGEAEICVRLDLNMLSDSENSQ

FRMPD2_2, Q68DX3 = target: FRMPD2_2, Q68DX3
FRMPD2_2, Q68DX3, sequence (Q68DX3 944-1038): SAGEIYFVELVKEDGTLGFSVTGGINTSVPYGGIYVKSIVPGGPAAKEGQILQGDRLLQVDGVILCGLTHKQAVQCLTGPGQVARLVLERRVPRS

PICK1, Q9NRD5 = target: PICK1, Q9NRD5
PICK1, Q9NRD5, sequence (Q9NRD5 17-115): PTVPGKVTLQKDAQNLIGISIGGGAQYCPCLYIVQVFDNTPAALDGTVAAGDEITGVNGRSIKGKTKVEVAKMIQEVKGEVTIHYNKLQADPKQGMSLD

DLG1_3, Q12959 = target: DLG1_3, Q12959
DLG1_3, Q12959, sequence (Q12959 457-571): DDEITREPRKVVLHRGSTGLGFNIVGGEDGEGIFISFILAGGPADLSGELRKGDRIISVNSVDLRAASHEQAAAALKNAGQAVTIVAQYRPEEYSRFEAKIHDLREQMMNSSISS

TIAM2, Q8IVF5 = target: T2, TIAM2, Q8IVF5
T2 sequence (Q8IVF5 885-986, limits assumed, looked up): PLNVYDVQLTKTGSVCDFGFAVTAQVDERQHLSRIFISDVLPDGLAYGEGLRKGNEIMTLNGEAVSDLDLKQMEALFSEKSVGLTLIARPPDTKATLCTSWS

Inadl_6, Q8NI35 = target: Inadl_6, Q8NI35
Inadl_6, Q8NI35, sequence (Q8NI35 1058-1167): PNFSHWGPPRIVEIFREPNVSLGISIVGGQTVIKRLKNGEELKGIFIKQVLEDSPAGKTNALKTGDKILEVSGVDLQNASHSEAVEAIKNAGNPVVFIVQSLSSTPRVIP

IL16_1, Q14005 = target: IL16_1, Q14005
IL16_1, Q14005, sequence (Q14005 210-306): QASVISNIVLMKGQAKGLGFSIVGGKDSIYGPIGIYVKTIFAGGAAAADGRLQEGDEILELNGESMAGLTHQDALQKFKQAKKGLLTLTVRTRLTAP

LNX2_2, Q8N448 = target: T3, LNX2_2, Q8N448
T3 sequence (Q8N448 334-432, limits assumed, looked up): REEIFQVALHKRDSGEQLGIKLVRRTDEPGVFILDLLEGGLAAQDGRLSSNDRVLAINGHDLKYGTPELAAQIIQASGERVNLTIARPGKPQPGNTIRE

DLG4_3, P78352 = target: DLG4_3, P78352
DLG4_3, P78352, sequence (P78352 306-403): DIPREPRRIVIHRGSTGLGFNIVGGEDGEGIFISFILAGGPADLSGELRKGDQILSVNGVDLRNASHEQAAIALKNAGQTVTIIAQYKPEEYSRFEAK

GORASP1, Q9BQQ3 = target: GORASP1, Q9BQQ3
GORASP1, Q9BQQ3, sequence (Q9BQQ3 1-208): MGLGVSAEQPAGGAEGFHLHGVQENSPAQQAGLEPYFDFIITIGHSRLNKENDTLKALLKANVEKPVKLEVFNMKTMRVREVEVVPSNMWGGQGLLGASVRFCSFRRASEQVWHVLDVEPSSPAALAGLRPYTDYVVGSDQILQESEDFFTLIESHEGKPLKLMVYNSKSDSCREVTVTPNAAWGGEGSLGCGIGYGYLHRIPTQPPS

NOS1, P29475 = target: NOS1, P29475
NOS1, P29475, sequence (P29475 9-101): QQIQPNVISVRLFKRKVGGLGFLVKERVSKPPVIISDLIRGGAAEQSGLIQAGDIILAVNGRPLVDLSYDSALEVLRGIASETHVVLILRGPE

MPP2, Q14168 = target: T4, MPP2, Q14168
T4 sequence (Q14168 180-250, limits assumed, looked up): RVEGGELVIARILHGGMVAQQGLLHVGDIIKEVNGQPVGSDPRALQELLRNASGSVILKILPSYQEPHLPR

DFNB31_2, Q9P202 = target: T5, DFNB31_2, Q9P202
T5 sequence (Q9P202 274-371, limits assumed, looked up): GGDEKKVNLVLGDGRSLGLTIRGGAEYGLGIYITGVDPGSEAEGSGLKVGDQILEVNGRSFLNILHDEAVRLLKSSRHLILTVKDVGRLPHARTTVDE

GRIP1_5, Q9Y3R0 = target: T6, GRIP1_5, Q9Y3R0
T6 sequence (Q9Y3R0 568-668, limits assumed, looked up): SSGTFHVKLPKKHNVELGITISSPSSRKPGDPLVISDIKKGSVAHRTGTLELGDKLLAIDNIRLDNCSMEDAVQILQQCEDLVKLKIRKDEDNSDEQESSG

NHERF3_1, Q5T2W1 = target: T7, NHERF3_1, Q5T2W1
T7 sequence (Q5T2W1 4-100, limits assumed, looked up): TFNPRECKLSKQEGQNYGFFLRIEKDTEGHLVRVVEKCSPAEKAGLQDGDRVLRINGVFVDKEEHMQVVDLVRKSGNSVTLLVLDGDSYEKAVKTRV

MAGI2_6, Q86UL8 = target: MAGI2_6, Q86UL8
MAGI2_6, Q86UL8, sequence (Q86UL8 1141-1229): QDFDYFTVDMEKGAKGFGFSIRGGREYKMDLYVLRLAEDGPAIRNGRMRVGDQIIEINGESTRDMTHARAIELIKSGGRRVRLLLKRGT

SHANK1, Q9Y566 = target: T8, SHANK1, Q9Y566
T8 sequence (Q9Y566 658-767, limits assumed, looked up): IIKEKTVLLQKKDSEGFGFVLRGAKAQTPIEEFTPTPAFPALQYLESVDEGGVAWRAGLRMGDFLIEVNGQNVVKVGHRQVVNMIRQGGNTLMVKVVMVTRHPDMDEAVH

PTPN3, P26045 = target: PTPN3, P26045
PTPN3, P26045, sequence (P26045 505-587): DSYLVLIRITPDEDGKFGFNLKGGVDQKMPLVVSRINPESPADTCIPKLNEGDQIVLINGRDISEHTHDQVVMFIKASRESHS

GRID2IP_1, A4D2P6 = target: GRID2IP_1, A4D2P6
GRID2IP_1, A4D2P6, sequence (A4D2P6 1-87): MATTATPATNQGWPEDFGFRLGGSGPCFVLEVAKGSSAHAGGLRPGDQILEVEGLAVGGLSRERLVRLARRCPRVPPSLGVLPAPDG

TJP3_3, O95049 = target: T9, TJP3_3, O95049
T9 sequence (O95049 375-456, limits assumed, looked up): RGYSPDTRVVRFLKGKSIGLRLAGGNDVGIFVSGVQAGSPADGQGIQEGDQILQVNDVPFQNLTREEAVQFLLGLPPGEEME

Inadl_8, Q8NI35 = target: Inadl_8, Q8NI35
Inadl_8, Q8NI35, sequence (Q8NI35 1425-1530): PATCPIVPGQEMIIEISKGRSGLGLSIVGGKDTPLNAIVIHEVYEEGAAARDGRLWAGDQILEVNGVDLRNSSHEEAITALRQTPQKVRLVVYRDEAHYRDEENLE

NHERF3_3, Q5T2W1 = target: T10, NHERF3_3, Q5T2W1
T10 sequence (Q5T2W1 238-333, limits assumed, looked up): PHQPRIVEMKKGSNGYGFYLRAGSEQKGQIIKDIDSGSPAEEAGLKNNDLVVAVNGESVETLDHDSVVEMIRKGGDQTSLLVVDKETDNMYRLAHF

DLG4_1, P78352 = target: DLG4_1, P78352
DLG4_1, P78352, sequence (P78352 62-152): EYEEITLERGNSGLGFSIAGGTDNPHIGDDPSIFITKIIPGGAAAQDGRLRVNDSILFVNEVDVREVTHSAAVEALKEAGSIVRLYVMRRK

DLG3_3, Q92796 = target: T11, DLG3_3, Q92796
T11 sequence (Q92796 374-475, limits assumed, looked up): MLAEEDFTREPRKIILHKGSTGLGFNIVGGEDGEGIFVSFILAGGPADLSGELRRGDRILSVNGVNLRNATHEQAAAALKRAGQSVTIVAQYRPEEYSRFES

pKd (MAGI2_2, Q86UL8): below the threshold
pKd (NHERF4_1, Q86UT5-2): 3.92
pKd (TJP1_3, Q07157): below the threshold
pKd (PCLO, Q9Y6V0): below the threshold
pKd (FRMPD2_2, Q68DX3): below the threshold
pKd (PICK1, Q9NRD5): below the threshold
pKd (DLG1_3, Q12959): below the threshold
pKd (TIAM2, Q8IVF5): below the threshold
pKd (Inadl_6, Q8NI35): below the threshold
pKd (IL16_1, Q14005): below the threshold
pKd (LNX2_2, Q8N448): below the threshold
pKd (DLG4_3, P78352): below the threshold
pKd (GORASP1, Q9BQQ3): below the threshold
pKd (NOS1, P29475): below the threshold
pKd (MPP2, Q14168): below the threshold
pKd (DFNB31_2, Q9P202): below the threshold
pKd (GRIP1_5, Q9Y3R0): below the threshold
pKd (NHERF3_1, Q5T2W1): below the threshold
pKd (MAGI2_6, Q86UL8): 4.11
pKd (SHANK1, Q9Y566): below the threshold
pKd (PTPN3, P26045): 4.25
pKd (GRID2IP_1, A4D2P6): below the threshold
pKd (TJP3_3, O95049): below the threshold
pKd (Inadl_8, Q8NI35): below the threshold
pKd (NHERF3_3, Q5T2W1): below the threshold
pKd (DLG4_1, P78352): below the threshold
pKd (DLG3_3, Q92796): below the threshold
B1: MYOZ2, Q9NPC6 (peptide)
chain: DTTVPESEDL

pKd (MAGI2_2, Q86UL8): 3.86
pKd (NHERF4_1, Q86UT5-2): 3.89
pKd (TJP1_3, Q07157): below the threshold
pKd (PCLO, Q9Y6V0): below the threshold
pKd (FRMPD2_2, Q68DX3): 4.44
pKd (PICK1, Q9NRD5): below the threshold
pKd (DLG1_3, Q12959): below the threshold
pKd (TIAM2, Q8IVF5): below the threshold
pKd (Inadl_6, Q8NI35): 3.95
pKd (IL16_1, Q14005): 4.17
pKd (LNX2_2, Q8N448): 5.08
pKd (DLG4_3, P78352): 3.5
pKd (GORASP1, Q9BQQ3): below the threshold
pKd (NOS1, P29475): 3.74
pKd (MPP2, Q14168): below the threshold
pKd (DFNB31_2, Q9P202): below the threshold
pKd (GRIP1_5, Q9Y3R0): below the threshold
pKd (NHERF3_1, Q5T2W1): below the threshold
pKd (MAGI2_6, Q86UL8): 4.71
pKd (SHANK1, Q9Y566): below the threshold
pKd (PTPN3, P26045): 4.99
pKd (GRID2IP_1, A4D2P6): below the threshold
pKd (TJP3_3, O95049): below the threshold
pKd (Inadl_8, Q8NI35): 4.13
pKd (NHERF3_3, Q5T2W1): below the threshold
pKd (DLG4_1, P78352): 4.6
pKd (DLG3_3, Q92796): below the threshold
B2: RNF146, Q9NTX7 (peptide)
chain: PDGQCTVTEV

pKd (MAGI2_2, Q86UL8): below the threshold
pKd (NHERF4_1, Q86UT5-2): 4.21
pKd (TJP1_3, Q07157): below the threshold
pKd (PCLO, Q9Y6V0): below the threshold
pKd (FRMPD2_2, Q68DX3): below the threshold
pKd (PICK1, Q9NRD5): below the threshold
pKd (DLG1_3, Q12959): below the threshold
pKd (TIAM2, Q8IVF5): below the threshold
pKd (Inadl_6, Q8NI35): below the threshold
pKd (IL16_1, Q14005): below the threshold
pKd (LNX2_2, Q8N448): below the threshold
pKd (DLG4_3, P78352): below the threshold
pKd (GORASP1, Q9BQQ3): below the threshold
pKd (NOS1, P29475): below the threshold
pKd (MPP2, Q14168): below the threshold
pKd (DFNB31_2, Q9P202): below the threshold
pKd (GRIP1_5, Q9Y3R0): below the threshold
pKd (NHERF3_1, Q5T2W1): 3.94
pKd (MAGI2_6, Q86UL8): below the threshold
pKd (SHANK1, Q9Y566): below the threshold
pKd (PTPN3, P26045): 3.95
pKd (GRID2IP_1, A4D2P6): below the threshold
pKd (TJP3_3, O95049): below the threshold
pKd (Inadl_8, Q8NI35): below the threshold
pKd (NHERF3_3, Q5T2W1): below the threshold
pKd (DLG4_1, P78352): below the threshold
pKd (DLG3_3, Q92796): below the threshold
B3: KIF17, Q9P2E2 (peptide)
chain: SKSNFGSEPL
